Measured values as given in the supplement of paper PMC10567573.

B1: C1orf55 (parent)
chain: FTSPDYQQQCHEMAERLEDSVLKG

Variants of: B1
Experiment: protein stability index of a GFP-peptide fusion (GPS, HEK-293T) (PSI 1-6); higher = more stable
Conditions: c terminus: a fixed tail appended
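Also: lentivirally expressed fusions sorted by FACS into six bins by GFP to DsRed ratio, PSI derived from sequencing read proportions per bin multiplied by bin number.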

Protein stability index: each site, then its substitutions
S3: C 2.83 | D 3.25 | E 4.12 | F 3.06 | G 1.76 | H 3.34 | I 3.73 | K 3.47 | L 3.23 | M 2.96 | N 2.75 | P 3.61 | Q 3.1 | R 2.54 | T 2.52 | V 3.92 | W 2.24 | Y 3.13
P4: A 2.37 | C 2.87 | D 4.06 | E 4.3 | F 2.6 | G 2.06 | H 2.63 | I 2.37 | K 2.41 | L 2.18 | M 2.23 | N 2.52 | Q 2.62 | R 2.8 | S 2.26 | T 2.06 | V 2.09 | W 2.61 | Y 1.98
D5: A 2.15 | C 3.59 | E 2.41 | F 2.09 | G 1.8 | H 2.03 | I 2.15 | K 2.57 | L 2.33 | M 2.12 | N 2.47 | P 2.94 | Q 2.29 | R 2.03 | S 1.81 | T 2.17 | V 1.86 | W 2.62 | Y 2.28
Y6: A 4.56 | C 4.51 | D 4.95 | E 5.43 | F 1.84 | G 4.76 | H 4.48 | I 3.94 | K 4.44 | L 4.3 | M 3.94 | N 4.27 | P 4.14 | Q 4.78 | R 4.24 | S 4.63 | T 4.41 | V 4.37 | W 3.06
Q7: A 1.12 | C 1.68 | D 4.18 | E 3.92 | F 3.33 | G 2.05 | H 2.14 | I 1.81 | K 2.07 | L 2.13 | M 2.01 | N 3.16 | P 2.27 | R 1.85 | S 2.24 | T 2.02 | V 2.02 | Y 3.06
Q8: A 1.96 | C 1.64 | D 3.9 | E 3.44 | F 2.44 | G 2.81 | H 2.35 | I 1.63 | K 2 | L 1.68 | M 1.59 | N 2.62 | P 4.29 | R 1.72 | S 2.18 | T 2.6 | V 2.47 | W 2.04 | Y 1.99
Q9: A 1.95 | C 1.84 | D 3.87 | E 3.26 | F 2.12 | G 1.92 | H 1.85 | I 1.29 | K 1.92 | L 1.7 | M 2.08 | N 1.52 | P 2.59 | R 1.28 | S 1.94 | T 1.38 | V 2.21 | W 2.98 | Y 2.09
C10: A 3.17 | D 4.68 | E 4.53 | F 2.14 | G 3.29 | H 2.74 | I 2.59 | K 3.46 | L 2.55 | M 2.41 | N 3.37 | P 3.87 | Q 3.47 | R 3.69 | S 2.87 | T 2.26 | V 2.29 | W 2.05 | Y 3.3
H11: A 2.83 | C 1.8 | D 2.83 | E 2.95 | F 2.26 | G 2.35 | I 2.61 | K 2.1 | L 1.87 | M 2.33 | N 2.13 | P 2.66 | Q 2.87 | R 2.45 | S 2.13 | T 2.1 | V 2.52 | Y 1.87
E12: A 2.79 | C 1.93 | D 2.56 | F 3.35 | G 2.13 | H 2.36 | I 2.98 | K 1.32 | L 2.7 | M 1.89 | N 1.7 | P 1.5 | Q 2.23 | R 1.87 | S 1.73 | T 1.47 | V 1.88 | W 1.85 | Y 2.35
M13: A 2.03 | C 1.97 | D 2.55 | E 2.62 | F 1.85 | G 2.56 | H 2.27 | I 1.97 | K 2.79 | L 2.25 | N 2.66 | P 2.83 | Q 2.24 | R 2.09 | S 2.53 | T 2.1 | V 1.91 | W 2.02 | Y 1.93
A14: C 2.06 | D 2.86 | E 2.63 | F 2.21 | G 2.48 | H 2.39 | I 2.45 | K 2.52 | L 2.26 | M 2.27 | N 2.75 | P 2.48 | Q 2.45 | R 2.27 | S 2 | T 2.07 | V 2 | W 2.1 | Y 1.92
E15: A 2.8 | C 1.96 | D 1.82 | F 1.78 | G 2.25 | H 2.34 | I 1.86 | K 1.59 | L 1.57 | M 1.8 | N 1.36 | P 2.33 | Q 1.67 | R 2.04 | S 2.04 | T 2.62 | V 2.42 | W 1.11 | Y 1.22
R16: A 2.08 | C 2.31 | D 2.85 | E 2.45 | F 2.29 | G 2.49 | H 2.33 | I 2.94 | K 1.93 | L 1.77 | M 2.44 | N 2.52 | P 2.56 | Q 2.4 | S 2.21 | T 2.38 | V 2.45 | W 1.9 | Y 2.04
L17: A 2.86 | C 2.25 | D 3.18 | E 2.97 | F 2.01 | G 2.54 | H 2.52 | I 2.12 | K 1.97 | M 1.92 | N 2.23 | P 2.66 | Q 2.34 | R 2.72 | S 2.47 | T 2.9 | V 2.35 | W 1.98 | Y 2.22
E18: A 1.96 | C 1.99 | D 1.9 | F 1.65 | G 2.23 | H 1.74 | I 1.52 | K 1.74 | L 1.76 | M 1.97 | N 1.44 | P 1.78 | Q 2.05 | R 2.36 | S 2.06 | T 1.4 | V 1.4 | W 1.55 | Y 1.79
D19: A 1.83 | C 2.04 | E 2.04 | F 1.79 | G 1.77 | H 2.32 | I 2.86 | K 1.35 | L 1.91 | M 2.08 | N 2.37 | P 1.98 | Q 2.04 | R 1.65 | S 2.87 | T 1.76 | V 2.03 | W 2.23 | Y 1.91
S20: A 1.95 | C 2.4 | D 2.3 | E 2.67 | F 1.85 | G 1.72 | H 1.75 | I 2.26 | K 1.75 | L 2.93 | M 2.06 | N 1.55 | P 2.12 | Q 2.9
